Experimental findings from US20200239555A1 (STATEN BIOTECHNOLOGY B V, published 2020) are described below.

Numbering of substitutions follows the chain as printed.

First the molecules themselves.
B1: mAb5 (antibody, IgG1, V domains shown)
VH: QLVESGGGLVQPGGSLRLSCAASGFTFGTYSMRWVRQAPGKGLEWVSSIHTEGGGTAYRDSVKGRFTISRDNAKNTLYLQMNSLRAEDTAVYYCVIAGYSDWGQGTLVTVSS
VL: DIVMTQSPLSLPVTPGESASISCKTSQGLVHSDGKTYFYWFLQKPGQSPQQLIYQVSNRASGVPDRFTGSGSGTDFTLKISRVKAEDAGVYYCAHGTYYPHTFGQGTRLEIK
notes: Produced as full length IgG1 (kappa) in ExpiCHO-S cells; also called humanized anti-ApoC3 antibody mAb5
B2: mAb1 (antibody, IgG1, V domains shown)
VH: B1 VH with A38V, V91I
VL: B1 VL
notes: Produced as full length IgG1 (kappa) in ExpiCHO-S cells; also called humanized anti-ApoC3 antibody mAb1
B3: mAb3 (antibody, IgG1, V domains shown)
VH: B1 VH with V91I
VL: B1 VL
notes: Produced as full length IgG1 (kappa) in ExpiCHO-S cells; also called humanized anti-ApoC3 antibody mAb3
B4: mAb16 (antibody, IgG1, V domains shown)
VH: B1 VH with G53A, S83N, R85K, V91I, L107Q
VL: B1 VL with D33G, K84E, Q105S
notes: Produced as full length IgG1 (kappa) in ExpiCHO-S cells; also called humanized anti-ApoC3 antibody mAb16
B5: mAb2 (antibody, IgG1, V domains shown)
VH: B1 VH with A38V, V91I
VL: B1 VL with T68S
notes: Produced as full length IgG1 (kappa) in ExpiCHO-S cells; also called humanized anti-ApoC3 antibody mAb2
B6: mAb18 (antibody, IgG1, V domains shown)
VH: B1 VH with G28S, G53A, S83N
VL: B1 VL with S18P, D33G, K84E
notes: Produced as full length IgG1 (kappa) in ExpiCHO-S cells; also called humanized anti-ApoC3 antibody mAb18
B7: mAb20 (antibody, IgG1, V domains shown)
VH: B1 VH with G28S, E52D, G53A, S83N, A86P
VL: B1 VL with L9G, P12S, S18P, D33G, R82G, K84E
notes: Produced as full length IgG1 (kappa) in ExpiCHO-S cells; also called humanized anti-ApoC3 antibody mAb20
B8: mAb4 (antibody, IgG1, V domains shown)
VH: B1 VH with V91I
VL: B1 VL with T68S
notes: Produced as full length IgG1 (kappa) in ExpiCHO-S cells; also called humanized anti-ApoC3 antibody mAb4
B9: mAb15 (antibody, IgG1, V domains shown)
VH: B1 VH with G53A, S83N, R85K, V91I, L107Q
VL: B1 VL with D33G, K84E, H95Q, Q105S
notes: Produced as full length IgG1 (kappa) in ExpiCHO-S cells; also called humanized anti-ApoC3 antibody mAb15

T1 sequence (P02656 21-99): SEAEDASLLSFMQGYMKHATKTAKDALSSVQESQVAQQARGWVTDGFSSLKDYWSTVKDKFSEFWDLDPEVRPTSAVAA

The first test concerns the target T1, biotinylated native human ApoC3 (human, UniProt P02656 21-99, biotinylated (site not stated)).
T1 construct: also called biotinylated human ApoC3
Description: SPR, IgG1 over biotinylated ApoC3 on SA chip. On the procedure:
(§1) Biotinylated native human ApoC3 was captured on a streptavidin coated SPR chip (GE Healthcare, cat. nr. BR100032) at pH 7.4, in accordance with the method provided by Biacore, by injection of 20 μl 10 μg/ml biotinylated native human ApoC3 reaching the surface density of approximately 500 RU. 60 μL of test antibody in 1-50 nM range diluted in HBS-EP buffer (GE, cat # BR-1008-26; 0.010 M HEPES, 0.150M NaCl, 3 mM EDTA, 0.05% (v/v) surfactant P20, pH 7.4) was injected and passed through the flow cells at a flow rate of 30 μl/min, followed by an off-rate wash at pH7.4 for 5 min. After the dissociation, the flow cell surfaces were regenerated by injecting 10 μl of 10 mM NaOH/1 M NaCl and 10 μl of 10 mM glycine at pH1.5. The assay was repeated at pH5.5 using the same general protocol, where the running and sample dilution buffer was replaced by a HBS-EP buffer supplemented with citrate buffer to 10 mM final concentration and pH adjusted to 5.5.
(§2) The resulting sensorgrams were analyzed using the BIAevaluation 4.1 software using Langmuir 1:1 binding model to derive binding kinetics. Data was zero adjusted and the reference cell sensorgrams were subtracted. Sensorgrams were double referenced to no-analyte blank assay. Fitted parameters were considered not applicable if off-rate values were below the equipment's detection limit of kd: 1×10⁻⁶ 1/s.
For orientation: In SPR one partner is held on a chip, and binding of the other changes the refractive index at the surface.
B1: the “KD pH5.5/KD pH7.4” value was found to be 2.33.
Same read-out and setting: for B2 the value was 5.22; for B3, 3.19; for B4, 10.8.
On the same count and under the same terms, for B5 the value was 5.13; for B6, 6.48; for B7, 16.1.

The target of the next test is T2, native human ApoC3 (human, UniProt P02656 21-99).
T2 construct: also called nhuApoC3; native huApoC3
T2 sequence (P02656 21-99): as above
Briefly: SPR, ApoC3 over captured IgG1, pH 7.4. On the procedure: (§3) An inverted SPR assay was designed in which a test antibody was captured on an SPR chip, human ApoC3 protein was injected, and binding of ApoC3 to the antibody was measured. […] The immobilization was performed in accordance with the method provided by Biacore/GE using the NHS/EDC kit (Biacore AB, Cat.nr. BR-1000-50): after activation of the chip, a solution of 30 μg/ml of anti-human Fcγ antibody in 10 mM acetate buffer with pH of 5.0 was prepared and injected until the surface density reached approximately 10000 RU. The analytical cycle comprised the following steps:
(§4) The resulting sensorgrams were analyzed using the BIAevaluation 4.1 software using Langmuir 1:1 binding model to derive binding kinetics. Data was zero adjusted, the reference cell sensorgrams were subtracted and the no analyte blank assay was used for double referencing the sensorgrams corresponding to the analyte injections. The dissociation and association phase sensorgrams were fitted separately for the 4 different concentration curves. Sensorgrams were excluded from the fitting if maximum RU values reached were below the detection limit of the equipment (<5 RU), Biacore 3000 (Biacore AB).
For B1, the Ka turned out to be 5.51e+06 M⁻¹; the koff (in general, the first-order rate constant of dissociation) came to 0.00637 s⁻¹; the kon (as a rule, the second-order rate constant of association) is 35100 M⁻¹ s⁻¹.
In the case of B2, the Ka is 1.35e+07 M⁻¹; the Kd (in general, the constant that tells how readily two partners part at equilibrium) worked out at 74 nM; the koff was 0.00426 s⁻¹; the kon was 57600 M⁻¹ s⁻¹.
Turning to B8, the Ka was 8.06e+06 M⁻¹, the koff turned out to be 0.00565 s⁻¹ and the kon amounted to 45500 M⁻¹ s⁻¹.
For B3, in that order: 5.75e+06 M⁻¹, 0.00582 s⁻¹ and 33400 M⁻¹ s⁻¹.
In turn, B4 returned a Ka of 1.68e+06 M⁻¹, a koff of 0.0466 s⁻¹ and a kon of 78100 M⁻¹ s⁻¹.
As to B9, the Ka came to 2.88e+07 M⁻¹; the affinity, expressed as Kd, was 35 nM; the koff came out at 0.00378 s⁻¹; the kon was determined as 109000 M⁻¹ s⁻¹.
The molecule B5 displayed a Ka of 9.69e+06 M⁻¹, a koff of 0.0046 s⁻¹ and a kon of 44500 M⁻¹ s⁻¹.
The molecule B6 returned a Ka of 1.97e+06 M⁻¹, a koff of 0.0539 s⁻¹ and a kon of 106000 M⁻¹ s⁻¹.
In the same order, the values of B7 are 747000 M⁻¹, 0.0737 s⁻¹ and 55100 M⁻¹ s⁻¹.

The next test concerns the target T2, native human ApoC3. Description: SPR, ApoC3 over captured IgG1, pH 5.5. How it is done:
as §3, §4
The molecule B1 had a Ka of 2.45e+06 M⁻¹, a koff of 0.0376 s⁻¹ and a kon of 92000 M⁻¹ s⁻¹.
In the same order, the values of B2 are 3.95e+06 M⁻¹, 0.0257 s⁻¹ and 101000 M⁻¹ s⁻¹.
As for B8, the Ka was determined as 2.32e+06 M⁻¹, the koff worked out at 0.0359 s⁻¹ and the kon turned out to be 83100 M⁻¹ s⁻¹.
In the same order, the values of B3 are 3.09e+06 M⁻¹, 0.033 s⁻¹ and 102000 M⁻¹ s⁻¹.
In the case of B9, the Ka is 1.16e+07 M⁻¹, the Kd amounted to 86 nM, the koff was determined as 0.0116 s⁻¹ and the kon amounted to 134000 M⁻¹ s⁻¹.
Consider B5, for which the Ka was 3.44e+06 M⁻¹, the koff turned out to be 0.0281 s⁻¹ and the kon was found to be 96600 M⁻¹ s⁻¹.

In another test the target is T2, native human ApoC3. Briefly: SPR, ApoC3 over captured IgG1. On the procedure:
as §3, §4
On to B1, for which the “KD (nM) pH5.5/pH7.4” value was found to be 2.25.
Still for that read-out and setting: for B2 the value was 3.42; for B8, 3.48.
With B3, the “KD (nM) pH5.5/pH7.4” value is 1.86.
Same read-out and setting: for B9 the value was 2.48; for B5, 2.82.

A further test deals with T1, biotinylated native human ApoC3. Briefly: SPR, IgG1 over biotinylated ApoC3 on SA chip, pH 7.4. On the procedure: as §1, §2
B1 came in with a Ka of 6.76e+09 M⁻¹, a Kd of 0.15 nM, a koff of 3.51e-05 s⁻¹ and a kon of 237000 M⁻¹ s⁻¹.
In the same order, the values of B2 are 2.2e+10 M⁻¹, 0.05 nM, 1.18e-05 s⁻¹ and 261000 M⁻¹ s⁻¹.
As for B8, the Ka was found to be 2.15e+11 M⁻¹, the koff turned out to be 1.13e-06 s⁻¹ and the kon is 243000 M⁻¹ s⁻¹.
B3: the Ka was determined as 9.11e+09 M⁻¹, the koff came out at 2.33e-05 s⁻¹ and the kon came to 212000 M⁻¹ s⁻¹.
Consider B4, for which the Ka is 1.46e+09 M⁻¹, the Kd turned out to be 0.69 nM, the koff was found to be 0.000375 s⁻¹ and the kon stood at 546000 M⁻¹ s⁻¹.
As for B9, the Ka is 1.86e+11 M⁻¹, the koff is 2.77e-06 s⁻¹ and the kon is 516000 M⁻¹ s⁻¹.
Take B5: the Ka was found to be 1.81e+10 M⁻¹, the Kd was determined as 0.06 nM, the koff was 1.35e-05 s⁻¹ and the kon was 245000 M⁻¹ s⁻¹.
Consider B6, for which the Ka is 7.49e+08 M⁻¹, the koff turned out to be 0.000838 s⁻¹ and the kon is 628000 M⁻¹ s⁻¹.
With B7, the Ka worked out at 1.71e+09 M⁻¹, binding was put at a Kd of 0.59 nM, the koff amounted to 0.000487 s⁻¹ and the kon worked out at 831000 M⁻¹ s⁻¹.

Another test has the same target. Briefly: SPR, IgG1 over biotinylated ApoC3 on SA chip, pH 5.5. On the procedure:
as §1, §2
On to B1, for which the Ka turned out to be 2.9e+09 M⁻¹, the Kd is 0.35 nM, the koff turned out to be 0.000145 s⁻¹ and the kon was 419000 M⁻¹ s⁻¹.
For B2, in that order: 4.23e+09 M⁻¹, 0.24 nM, 0.000104 s⁻¹ and 440000 M⁻¹ s⁻¹.
In the same order, the values of B8 are 2.67e+09 M⁻¹, 0.37 nM, 0.000156 s⁻¹ and 416000 M⁻¹ s⁻¹.
For B3, in that order: 2.85e+09 M⁻¹, 0.35 nM, 0.000127 s⁻¹ and 363000 M⁻¹ s⁻¹.
The molecule B4 had a Ka of 1.34e+08 M⁻¹, a koff of 0.0121 s⁻¹ and a kon of 1.63e+06 M⁻¹ s⁻¹.
With B9, the Ka came out at 2.83e+09 M⁻¹, binding was characterised by a dissociation constant (Kd) of 0.35 nM, the koff turned out to be 0.000249 s⁻¹ and the kon was 705000 M⁻¹ s⁻¹.
In the same order, the values of B5 are 3.54e+09 M⁻¹, 0.28 nM, 0.000123 s⁻¹ and 435000 M⁻¹ s⁻¹.
B6 yielded a Ka of 1.16e+08 M⁻¹, a koff of 0.0155 s⁻¹ and a kon of 1.79e+06 M⁻¹ s⁻¹.
In the same order, the values of B7 are 1.06e+08 M⁻¹, 0.0214 s⁻¹ and 2.27e+06 M⁻¹ s⁻¹.
